Reference: US10117953B2, “Antibody drug conjugates” (Novartis AG, priority 2013, dated 2018)

B1: 9P3: hybridoma derived anti-cKIT antibody; VH SEQ ID NO.9, VL SEQ ID NO.18 (antibody, V domains shown)
VH: EVRLVESEGGLVQPRSSMKLSCTASGFTFSDYYMAWVRQVPEKGLEWVANINYDGSSTYYLDSLKSRFIISRDNAKNILYLQMSSLKSEDTATYYCARGDYYGTTYWYFDVWGTGTTVTVSS
VL: DIQMTQTTSSLSASLGDRVTISCRASQDISNYLNWYQQKPDGTVKLLIYYTSRLQSGVPSRFSGSGSGTDYSLTISNLEQEDIATYFCQQGKKLWSFGGGTKLEIKR

What was measured:
Uke-1 cells = assay: ADCC activity in vitro (Calcein release, NK3.3 effector cells); type: cell-based, human; settings: effector to target ratio 20 to 1
Method: In brief, Uke-1 cells were stained with Calcein acetoxy-methyl ester (Calcein-AM; Sigma-Aldrich catalog #17783-5MG, St. Louis, Mo.), washed twice, pipetted into a 96-well microtiterplate (96 well, U-bottomed, clear plastic; Corning Costar, catalog #650 160, Tewksbury, Mass.) at a concentration of 5000 cells per well and pre-incubated for 10 min with a serial dilution of the above mentioned antibodies and proteins (from 50,000 to 0.003 μg per ml) before adding the effector NK3.3 cells for 1 hour in an effector to target ratio of 20 to 1. In order to calculate the antibody specific lysis of the target cells, a parallel incubation of target cells only without antibody or effector cells served as a baseline and negative control, whereas the positive control or maximal lysis or hundred percent specific lysis was determined by lysis of target cells only with a 1% Triton-X 100 solution. […] Following a co-incubation of target and effector cells, the microtiterplate was centrifuged and an aliquot of the supernatant fluid was transferred to another microtiterplate (96 well, flat-bottomed, black with clear bottom; Corning Costar, catalog #3904, Tewksbury, Mass.) and the concentration of free Calcein in solution was determined with a fluorescence counter (Victor 3® multilabel counter, Perkin Elmer, Waltham, Mass.).

[1] = tested on: GIST T1 subcutaneous tumor xenograft; assay: Efficacy of murine 9P3 ADCs, MCC-DM1 vs SPDB-DM4; type: in vivo, mouse; settings: single i.v. dose 10 mg/kg, unconjugated antibody
[2] = molecular target: T1, cKIT extra-cellular domain (SEQ ID NO:160) (Homo sapiens, UniProt P10721); assay: Epitope mapping by deuterium exchange mass spectrometry (HDx-MS); type: binding; settings: Region 1 residues 109-119, Region 2 residues 185-196
T1 construct: LENGTH: 503 amino acids; made in house; host or cells: HEK293 derived cell lines (293FS), transient transfection
T1 sequence (P10721 with tags, fused parts or gaps isoform P10721-2): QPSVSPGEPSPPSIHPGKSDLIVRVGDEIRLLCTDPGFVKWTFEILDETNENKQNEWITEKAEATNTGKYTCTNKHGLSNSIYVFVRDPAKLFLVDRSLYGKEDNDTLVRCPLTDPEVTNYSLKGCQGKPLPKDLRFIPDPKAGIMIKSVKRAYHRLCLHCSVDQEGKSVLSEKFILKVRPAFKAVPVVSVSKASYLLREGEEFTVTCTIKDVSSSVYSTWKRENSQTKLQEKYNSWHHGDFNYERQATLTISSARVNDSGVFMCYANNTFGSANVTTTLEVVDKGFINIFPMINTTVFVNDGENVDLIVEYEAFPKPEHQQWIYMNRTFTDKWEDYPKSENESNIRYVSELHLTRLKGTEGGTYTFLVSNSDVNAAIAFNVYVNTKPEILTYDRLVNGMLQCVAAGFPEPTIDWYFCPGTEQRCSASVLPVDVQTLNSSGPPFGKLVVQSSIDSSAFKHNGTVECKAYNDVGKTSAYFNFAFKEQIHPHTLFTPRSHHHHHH
Method: In these experiments, the deuterium uptake of cKIT extra-cellular domain (SEQ ID NO:160, see below) was measured in the absence and presence of a therapeutic mAb, 9P3. Regions in cKIT that show a decrease in deuterium uptake upon binding of the antibody are likely to be involved in the epitope; however, due to the nature of the measurement it is also possible to detect changes remote from the direct binding site (allosteric effects). Usually, the regions that have the greatest amount of protection are involved in direct binding although this may not always be the case. In order to delineate direct binding events from allosteric effects orthogonal measurements (e. g. X-ray crystallography, alanine mutagenesis) are necessary.
The cKIT epitope mapping experiments are performed on a Waters Synapt® G2 HDx-MS platform, which includes LEAP® robot system, nanoACQUITY® UPLC System, and Synapt® G2 mass spectrometer. In this method, triplicate control experiments are carried out as follows. 300 pmol (1.4 mg/ml) of cKIT antigen is diluted into 110 ul of 95% deuterated PBS buffer (pH 7.4) and incubates at room temperature on a bench rotator for 25 minutes (% D=85.5%). Deuterium exchange is quenched by 1:1 dilution with cold quench buffer (6M Urea and 1M TCEP pH=2.5) on ice for 5 min. […] The sample is analyzed using the same on-line pepsin digestion/LC-MS setup as the control experiment.

Molecule	ADCC (Uke-1 cells)	antitumor efficacy [1]	epitope (regions protected from deuterium exchange) [2]
MabCampath [reference compound]	mediated ADCC killing of the target cells		
B1		Neither the control non-specific IgG1 ADCs nor the unconjugated 9P3 were efficacious	discontinuous epitope that is remote from the SCF binding sites
